Values quoted from earlier work, collected in patent US20110015587A1, “Irrigation Device and Method Using Same” (priority 2009, published 2011).

Test system: fibroblasts
Settings: in six hours; through motility of fibroblasts

B1: Lactoferrin (protein, UniProt P02788 20-710, looked up)
Lactotransferrin: GRRRSVQWCAVSQPEATKCFQWQRNMRKVRGPPVSCIKRDSPIQCIQAIAENRADAVTLDGGFIYEAGLAPYKLRPVAAEVYGTERQPRTHYYAVAVVKKGGSFQLNELQGLKSCHTGLRRTAGWNVPIGTLRPFLNWTGPPEPIEAAVARFFSASCVPGADKGQFPNLCRLCAGTGENKCAFSSQEPYFSYSGAFKCLRDGAGDVAFIRESTVFEDLSDEAERDEYELLCPDNTRKPVDKFKDCHLARVPSHAVVARSVNGKEDAIWNLLRQAQEKFGKDKSPKFQLFGSPSGQKDLLFKDSAIGFSRVPPRIDSGLYLGSGYFTAIQNLRKSEEEVAARRARVVWCAVGEQELRKCNQWSGLSEGSVTCSSASTTEDCIALVLKGEADAMSLDGGYVYTAGKCGLVPVLAENYKSQQSSDPDPNCVDRPVEGYLAVAVVRRSDTSLTWNSVKGKKSCHTAVDRTAGWNIPMGLLFNQTGSCKFDEYFSQSCAPGSDPRSNLCALCIGDEQGENKCVPNSNERYYGYTGAFRCLAENAGDVAFVKDVTVLQNTDGNNNEAWAKDLKLADFALLCLDGKRKPVTEARSCHLAMAPNHAVVSRMDKVERLKQVLLHQQAKFGRNGSDCPDKFCLFQSETKNLLFNDNTECLARLHGKTTYEKYLGPQYVAGITNLKKCSTSPLLEACEFLRK
reduction of collagen gel surface area: 50%
